# Laboratory results reported in the supplement of paper PMC7877785.
# ± gives the uncertainty stated by the source.
# Test: self-splicing fitness, log relative to wild type (ln ratio); higher = more splicing; Tetrahymena group I intron in knt gene, E. coli kanamycin selection, DiMSum; sequences stand for … in CUCUCU…GGAGGGAAAAGUUAUCAGGCAUGCACCUGGUAGCUAGUCUUUAAACCAAUAGAUUGCAUCGGUUUAAAAGGCAAGACCGUCAAAUUGCGGGAAAGGGGUCAACAGCCGUUCAGUACCAAGUCUCAGGGGAAACUUUGAGAUGGCCUUGCAAAGGGUAUGGUAAUAAGCUGACGGACAUGGUCCUAACCACGCAGCCAAGUCCUAAGUCAACAGAUCUUCUGUUGAUAUGGAUGCAGUUCACAGACUAAAUGUCGGUCGGGGAAGAUGUAUUCUUCUCAUAAGAUAUAGUCGGACCUCUCCUUAAUGGGAGCUAGCGGAUGAAGUGAUGCAACACUGGAGCCGCUGGGAACUAAUUUGUAUGCGAAAGUAUAUUGAUUAGUUUUGGAGUACUCGUGGUCG
# Summary of the method: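 Colonies from six replicate transformations of E. coli BL21(DE3) were pooled and amplicon-sequenced on an Illumina HiSeq 2500. The library placed an intron with all eight P1ex-region nucleotides randomised inside the knt kanamycin-resistance gene on pET-22b(+), and cells grew overnight at 37°C or 30°C on LB agar with or without 25 μg/mL kanamycin (plus 100 μg/mL carbenicillin, 50 μM IPTG, 0.2% rhamnose). Fitness is the DiMSum error-weighted combination of wild-type-normalised replicate fold changes, kanamycin versus none.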
Sequence,self-splicing fitness (ln) (30 °C),self-splicing fitness (ln) (37 °C)
AUACAGCAAUAUUACGCUAC,-2.36 ± 0.35,
GUAAAGCAAUAUUACGGUAA,-1.09 ± 0.086,-0.336 ± 0.11
GUUUAGCAAUAUUACGCGCA,-0.466 ± 0.1,-0.363 ± 0.12
AAUGAGCAAUAUUACGGUUC,-2.91 ± 0.15,-2.48 ± 0.18
UUAAAGCAAUAUUACGGCGU,-0.257 ± 0.068,0.33 ± 0.09
UGUCAGCAAUAUUACGUGGG,-1.94 ± 0.073,-0.96 ± 0.082
CGACAGCAAUAUUACGCUUG,-1.8 ± 0.098,-1.22 ± 0.12
AUCCAGCAAUAUUACGCUGG,-3.65 ± 0.19,-1.7 ± 0.16
AAUUAGCAAUAUUACGAGUG,-1.08 ± 0.081,-0.525 ± 0.11
GGGAAGCAAUAUUACGGUAG,-2.65 ± 0.2,-2.32 ± 0.24
UCCAAGCAAUAUUACGAAUC,,-1.28 ± 0.19
GCGAAGCAAUAUUACGCGCA,-1.75 ± 0.36,-1.11 ± 0.22
GUUCAGCAAUAUUACGACUG,-3.57 ± 0.28,-0.988 ± 0.14
CAACAGCAAUAUUACGCUAU,-3.29 ± 0.17,-2.25 ± 0.13
AGAUAGCAAUAUUACGGCGU,-0.0254 ± 0.091,0.663 ± 0.1
UAUCAGCAAUAUUACGCCCG,-0.133 ± 0.098,-0.202 ± 0.13
CUUUAGCAAUAUUACGAAUG,0.423 ± 0.14,-0.306 ± 0.17
UGGUAGCAAUAUUACGUGCA,-0.653 ± 0.11,-1.27 ± 0.1
GGUCAGCAAUAUUACGAAUC,-0.132 ± 0.14,0.365 ± 0.13
CGCGAGCAAUAUUACGCUGC,-2.91 ± 0.28,
AGGAAGCAAUAUUACGAACA,-1.85 ± 0.14,-0.21 ± 0.2
GAGGAGCAAUAUUACGAUGC,-2.85 ± 0.26,-1.21 ± 0.21
AUCAAGCAAUAUUACGGCAU,-0.523 ± 0.067,0.787 ± 0.088
AACGAGCAAUAUUACGCACG,-2.8 ± 0.38,-0.837 ± 0.25
UCGCAGCAAUAUUACGAUGU,-2.15 ± 0.18,-2.31 ± 0.28

Sequence,self-splicing fitness (ln) (30 °C),self-splicing fitness (ln) (37 °C)
GAUGAGCAAUAUUACGAUUC,-2.42 ± 0.46,
CCAAAGCAAUAUUACGUAAA,-3.24 ± 0.11,-2.07 ± 0.14
GUAAAGCAAUAUUACGAUGU,-0.534 ± 0.081,-0.0801 ± 0.1
UUCCAGCAAUAUUACGGGGU,-3.02 ± 0.12,-2.81 ± 0.17
CCCGAGCAAUAUUACGUAGC,-3.06 ± 0.24,-2.49 ± 0.33
ACCCAGCAAUAUUACGAUAC,-2.94 ± 0.17,-0.588 ± 0.13
GCGCAGCAAUAUUACGCCUU,-2.92 ± 0.23,0.19 ± 0.14
ACUCAGCAAUAUUACGUCAA,-2.56 ± 0.1,-1.78 ± 0.14
AUAAAGCAAUAUUACGAUAU,-0.0773 ± 0.088,0.168 ± 0.1
CCAAAGCAAUAUUACGCUGA,-4.48 ± 0.36,-2.75 ± 0.19
GAAUAGCAAUAUUACGCUGC,-3.36 ± 0.45,-3.32 ± 0.32
AUGGAGCAAUAUUACGCUUU,,-1.37 ± 0.46
UGACAGCAAUAUUACGAAGA,-3.28 ± 0.27,-0.756 ± 0.16
GAUUAGCAAUAUUACGACUA,-0.765 ± 0.17,0.0117 ± 0.13
AGCUAGCAAUAUUACGCGGA,-2.29 ± 0.14,-2.71 ± 0.18
GAGAAGCAAUAUUACGAUAC,-1.73 ± 0.13,-0.221 ± 0.18
CGCCAGCAAUAUUACGCUUA,-3.1 ± 0.21,-1.87 ± 0.17
GCGUAGCAAUAUUACGACCA,-1.52 ± 0.17,-0.255 ± 0.16
AGCGAGCAAUAUUACGAAUA,-3.75 ± 0.46,-3.32 ± 0.37
CCAUAGCAAUAUUACGGAGC,,-2.74 ± 0.31
AAGGAGCAAUAUUACGCGGG,-3.76 ± 0.46,
GGAUAGCAAUAUUACGGGGG,-2.14 ± 0.19,-1.8 ± 0.35
AUAGAGCAAUAUUACGUCUG,-0.796 ± 0.098,-0.654 ± 0.14
UUCGAGCAAUAUUACGGUUU,-4.44 ± 0.36,-1.93 ± 0.22
UACCAGCAAUAUUACGAUCA,-0.119 ± 0.07,-0.323 ± 0.09
